B1: Pistol ribozyme (parent)
chain: GGGUCGUUGUUCCAUAAUCGCGUGGAUAUGGCACGCAAGUUUCUACCGGGCACCGUAAAUGUCCGACUGGAGCCGUUCGGGCGGCUAUAAACAGACCUCAGGCCCGAAGCGUGGCGGCACCUGCCGCCGGUGGUAAAAAAGAUCGGAAGAGCACACGUCU

Experimental findings from the RNAGym collection of RNA variant scans (doi:10.1021/acssynbio.7b00057) are described below.

In the series the parent is B1. Kind of series: aptazyme ON/OFF ratio, guanine; higher = stronger switching; co-transcriptional cleavage with and without guanine.
U7C U8G G9A U10A U11G C12G C13U: the “aptazyme ON/OFF ratio” value was 1.33.

U7C U8C U10G: the “aptazyme ON/OFF ratio” value worked out at 1.98. In the case of U8G G9C U10A C13A it was 1.07. On to U7C U8C G9A U10C C12A C13G, for which the “aptazyme ON/OFF ratio” value worked out at 1.2. For U7G G9C U10C U11C C12U the value was 1.06; for U7G G9A U11A C12G C13A, 1.08; for U7A U8G G9U U10A U11G C12A C13U, 1.19. In the case of U7C U8G U11A C12A C13G it was 1.07. For U7G U8C G9A U10A U11C C12A C13G the value was 1.25; for U8G G9U U11A C12G, 1.25. Take U7G U8G G9U U10A U11C C12G C13U: the “aptazyme ON/OFF ratio” value worked out at 1.14.

As for U8C U10G U11G C12A C13U, the “aptazyme ON/OFF ratio” value amounted to 1.22.

As to U7C U8G G9U C12U C13U, the “aptazyme ON/OFF ratio” value is 1.2. For U8C G9U U10A U11C C12G C13U the value was 1.31; for U7A U8A G9A U11A C12G C13U, 1.25; for U7G U8C G9C U10C U11C C12G C13G, 1.04. For U7G G9C U10A U11G C12A C13U the value was 1.14; for U7C U8C G9A U11A C12A C13G, 1.18. For U7A U8C G9U U10G U11G C12U C13G, the “aptazyme ON/OFF ratio” value stood at 1.11. For U7A G9A U10G U11C C12A C13G the value was 1.14; for U7C G9U U10A U11C C12U, 1.1; for G9U U10G U11A C12A C13G, 1.7. As for U7G U8A G9C U10C U11A C12G, the “aptazyme ON/OFF ratio” value amounted to 1.05.

With U7C U8C U10C U11A C13A, the “aptazyme ON/OFF ratio” value is 1.33. In the case of U7A U8C G9U C12U C13U it was 1.39; in that of U8C U11A C12U C13A, 1.21. For U7G U8C U10A U11C C12A C13A, the “aptazyme ON/OFF ratio” value was determined as 1.13. For U7A U8A G9U U10A U11G C13A the value was 1.22; for U8A G9C U10A U11A C12U C13U, 1.17. For U7C U8G U11G C13A the value was 1.13; for U7A U8C G9A U10G U11A C12A C13A, 1.19; for U7G U8C G9U U10A C12G C13U, 1.22. With U7A G9C U11G C12G C13U, the “aptazyme ON/OFF ratio” value is 1.12.

Take U8G U10G U11A C13U: the “aptazyme ON/OFF ratio” value stood at 1.33. Regarding U7A U8G G9C U11C C13U, the “aptazyme ON/OFF ratio” value turned out to be 1.44.

U7G U8A G9C U10G U11G C12A C13A: the “aptazyme ON/OFF ratio” value was 1.05. For U8C G9C U11G the value was 1.03. In the case of U7C U8G G9C U10A U11G C12U C13G it was 1.12; in that of U7C U8A C12G C13G, 1.23; in that of U7A G9C U10A U11G C12G C13U, 1.18.

For U7A G9C U11G C12G, the “aptazyme ON/OFF ratio” value is 1.36.

Regarding U7C G9A U10C U11G C12A C13A, the “aptazyme ON/OFF ratio” value was determined as 1.21. For U7C G9U U10A U11A C12A the value was 1.2. For U8G G9U U10C U11C C13G, the “aptazyme ON/OFF ratio” value amounted to 1.04. For U7C U8G G9U U10G U11A C12U C13G the value was 1.17; for U7C U8A G9U U10C U11A C13A, 1.15; for U7C U8A G9U U10C C13G, 1.07. On to G9U U10C, for which the “aptazyme ON/OFF ratio” value worked out at 4.48. Consider U7A U8A G9A U10A C13G, for which the “aptazyme ON/OFF ratio” value came out at 1.05.

Turning to U7A U8A G9A U10A C13A, the “aptazyme ON/OFF ratio” value was 1.12. For U8G G9C U11A C13U, the “aptazyme ON/OFF ratio” value was determined as 1.05. Take U7C U8G G9U U10A U11C C12U C13U: the “aptazyme ON/OFF ratio” value was 1.06. For U7A G9U U10C U11A C12G C13A the value was 1.13; for U8G G9U U11C, 1.24; for U7C U10A C13U, 1.04. Regarding U7G U8C G9A U10G U11G C13G, the “aptazyme ON/OFF ratio” value turned out to be 1.28.

With U7C U8A G9U U10G U11G C12G, the “aptazyme ON/OFF ratio” value worked out at 1.26. In the case of U8A G9A U11A C12U C13U, the “aptazyme ON/OFF ratio” value came to 1.29. For the variant U8A U10C C12U C13G, the “aptazyme ON/OFF ratio” value amounted to 1.11.

For U7A U8G U10C U11A C13A, the “aptazyme ON/OFF ratio” value stood at 1.45. Take U7C U8G G9C U10A C12U: the “aptazyme ON/OFF ratio” value was 1.17.

As for U7G U8C U10G U11C C13G, the “aptazyme ON/OFF ratio” value worked out at 1.19. As for U7A U8G G9C U11G C12G C13G, the “aptazyme ON/OFF ratio” value is 1.18.

As for U7A U8C G9C U10G U11C C13U, the “aptazyme ON/OFF ratio” value stood at 1.1. For U7A U8G U10A C12G C13U, the “aptazyme ON/OFF ratio” value worked out at 1.21. Regarding U7A U8C C12A C13A, the “aptazyme ON/OFF ratio” value worked out at 1.28.

On to U7G G9A U11G C12A, for which the “aptazyme ON/OFF ratio” value stood at 1.17.

As for U7C U8C G9U U10G U11G C12U C13U, the “aptazyme ON/OFF ratio” value stood at 1.08. With U8C G9U U10C U11C C13A, the “aptazyme ON/OFF ratio” value is 1.03.

On to U8A G9A C12G C13G, for which the “aptazyme ON/OFF ratio” value is 1.2. In the case of U7C U8A G9C U11C it was 1.04.

For the variant U8G U10A U11G C12U, the “aptazyme ON/OFF ratio” value is 1.23. As for U7C U8G G9A U11G C12G, the “aptazyme ON/OFF ratio” value was found to be 1.23.

Consider U7G U8C G9U U10C U11G C12A C13G, for which the “aptazyme ON/OFF ratio” value was determined as 1.21. In the case of U7A U8A G9C U11C C12U it was 1.09. For U7C G9A U10C U11G C13U, the “aptazyme ON/OFF ratio” value amounted to 1.45.

As for U7C U8A U10G U11A C13G, the “aptazyme ON/OFF ratio” value turned out to be 1.17. Consider U7C U8A G9U U10G, for which the “aptazyme ON/OFF ratio” value came to 1.26. In the case of U7G U10G U11A C13U it was 1.11; in that of U7G U8C G9A U11A C12U C13A, 1.09. For G9A U10A U11C C12U C13U the value was 1.26; for U8A U10G C12G C13G, 1.12. In the case of U8A U10G U11C C12U it was 1.04.
